The text below walks through data of patent US12459997B2, “Compounds and methods targeting interleukin-19” (Eli Lilly and Company, priority 2018, dated 2025).

One may read the kon as the second-order rate constant of association.

The target of assay [1] is T1, recombinant human IL-19 (Homo sapiens, UniProt Q9UHD0).
T1 sequence (Q9UHD0 25-177): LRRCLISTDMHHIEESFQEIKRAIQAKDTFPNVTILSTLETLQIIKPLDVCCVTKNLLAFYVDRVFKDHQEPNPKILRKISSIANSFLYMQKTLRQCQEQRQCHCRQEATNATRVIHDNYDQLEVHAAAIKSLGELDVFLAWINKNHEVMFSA
Description: Bio-layer interferometry (BLI) binding kinetics and affinity (Octet Red96). The settings on record: 25° C.; 1:1 binding model. The method, then:
Bio-layer interferometry (BLI) assay, measured with a Octet Red96® instrument available from ForteBio (using HBS-EP+ running buffer (GE Healthcare, 10 mM Hepes pH7.4+150 mM NaCl+3 mM EDTA+0.05% surfactant P20) at 25° C.), is used to measure binding of the exemplified IL-19 antibodies of the present invention to recombinant human IL-19 (having the amino acid sequence set for in SEQ ID NO: 1).
Except as noted, all reagents and materials are from ForteBio (Freemont, Calif.). An AMQ biosensor is used to immobilize antibody of interest for analysis. […] Recombinant human IL-19 is prepared to concentrations of 270, 90, 30, 10, 3.33, 1.11, 0.370, and 0 (blank) nM by dilution into running buffer. Each analysis consists of: (1) capturing antibody samples on biosensors for 300 secs; (2) establishing a baseline by incubating antibody loaded biosensors with running buffer for 60 secs; (3) incubating antibody loaded biosensors with serially diluted recombinant human IL-19 for 300 secs to monitor association phase; (4) return of biosensor to running buffer to monitor dissociation phase.
Binding data is processed using standard double-referencing and fit to a 1:1 binding model using Data Analysis v9.0 evaluation software, to determine the association rate (kon, M^−1 s^−1 units), dissociation rate (koff, s^−1 units), and Rmax (nm units). The equilibrium dissociation constant (KD) was calculated from the relationship KD=koff/kon, and is in molar units.

The target of assay [2] is T1, recombinant human IL-19. Description: Binning by cross-competition binding assay (Octet Red96). From the text: Binning experiments involve competing monoclonal antibodies against one another in a pairwise and combinatorial fashion for binding to a specific antigen. A “bin” is a relative concept, based upon the epitope regions represented within the panel of monoclonal antibodies being tested. Two antibodies belong to the same bin if they cannot pair with one another and share the same blocking profile when tested against the other antibodies (or bins of antibodies) in the test panel. Binning of exemplified antibodies of the present invention may be performed by cross-competition binding assays using the Octet Red96®, available from ForteBio, according to manufacturer instruction. Briefly, to determine if two antibodies share overlapping epitope regions, an exemplified antibody is labeled with biotin and captured onto streptavidin sensor tip. The coated biosensor up is then incubated with recombinant human IL-19 to saturate the capture antibody binding sites. The capture antibody-antigen complex is then incubated with a detection antibody. […] Antibodies with a same binding profile are grouped together into the same bin.
(BLI is a label-free optical method that tracks binding on a fibre tip over time.)

In assay [3] the target is T2, human IL-19 / human IL-20R beta Fc-fusion protein (Homo sapiens, UniProt Q9UHD0).
T2 sequence (Q9UHD0 25-177): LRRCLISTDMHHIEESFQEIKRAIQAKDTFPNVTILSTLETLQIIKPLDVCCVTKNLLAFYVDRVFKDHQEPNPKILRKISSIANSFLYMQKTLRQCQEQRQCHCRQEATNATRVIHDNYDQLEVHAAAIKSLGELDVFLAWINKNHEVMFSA
As to the kind of experiment: BLI in vitro neutralization: IL-19 captured by antibody, then incubated with IL-20R beta Fc. The conditions noted are these: block of IL-19 binding to soluble receptor. An excerpt:
Alternatively, a biophysical assay such as bio-layer interferometry (BLI) may be used for assessing neutralization of IL-19 by antibodies of the present invention. Binding between a ligand immobilized on the biosensor tip surface and an analyte in solution produces an increase in optical thickness at the biosensor tip, which results in a wavelength shift (expressed in nm). According to such assay, the IL-19 receptor (i.e., […]) is expressed in a membrane-free manner (such as with an Fc-fusion e.g. IL20Rbeta Fc chimera protein from R&D Systems catalog 1788-IR-050). […] The immobilized antibodies are then incubated with recombinant human IL-19 protein diluted to 100 nM using HBS-EP+ running buffer (GE Healthcare, 10 mM Hepes pH7.4+150 mM NaCl+3 mM EDTA+0.05% surfactant P20) for 240-300 secs. The human IL-19, after binding to the anti-IL-19 antibody, is assessed by incubation with human IL-20R beta Fc-fusion protein for 240-300 secs. The ability of the antibody to block or neutralize binding of the IL-19 ligand to the soluble receptor is observed as a minimal (<0.025 nm) increase in the wavelength during this step of the assay.

For assay [4], the target named is T1, recombinant human IL-19. Description: PathHunter eXpress IL20RA/IL20RB dimerization assay (cell-based neutralization). Also noted: host or cells: PathHunter eXpress IL20RA/IL20RB cells (DiscoverX 93-1027E3) carry the receptor partners. The settings on record: eight experiments. An excerpt: PathHunter® eXpress IL20RA/IL20RB dimerization assay (DiscoverX product code 93-1027E3) is used to assess ability of exemplified antibodies to prevent binding of human IL-19 recombinant protein in a cell-based assay format. The assay detects ligand induced dimerization of two subunits of a receptor-dimer pair. The cells have been engineered to co-express one receptor subunit fused to enzyme donor and a second dimer partner fused to enzyme acceptor. Binding of an agonist to one receptor subunit induces it to interact with its dimer partner, forcing complementation of the two enzyme fragments resulting in the formation of a functional enzyme that hydrolizes a substrate to generate a chemiluminescent signal. […] Human IL-19 recombinant protein with and without exemplified antibodies mixture is then incubated with cells overnight at 37° C./5% CO2. Substrate buffer is added to cells and incubated at room temperature for 1 hour in the dark before luminescent detection.

B1: R_3: rabbit-derived IL-19 antibody; LCVR SEQ ID NO: 50, HCVR SEQ ID NO: 54 (antibody, V domains shown)
VH: QCQSLEESGGGLVEPEGSLTLTCKASGFSFSSSYWICWVRQAPGKGLEWIACTDTFSGDTYYASWAKGRFTISKTSSTTVTLRMTSLTDADTATYFCARDIFGTAVHISLWGPGTLVTVSS
VL: ADVVMTQTPSSVEAAVGGTVTIKCQASQSIGSSLAWYQQKPGQRPKLLIYGASTLASGVPSRFKGSGSGTEFTLTISDLECADAATYYCQCHYHGSSYWDNSFGGGTEVVVK
For B1, the kon in assay [1] worked out at 391000 M⁻¹ s⁻¹. Moreover, the “Binning Group” value in assay [2] was 3.

B2: M_3: murine-derived IL-19 antibody; LC SEQ ID NO: 18, HC SEQ ID NO: 22 (antibody)
heavy: QIQLVQSGPELKKPGETVKISCKASGYTFTTYGMSWVKQAPGKGLKWMVWINTYSGVPTYVDDFKGRFAFSLETSASTAYLQINNLKNEDTATYFCARRDEGFAYWGQGTLVTVSAAKTTPPSVYPLAPGSAAQTNSMVTLGCLVKGYFPEPVTVTWNSGSLSSGVHTFPAVLQSDLYTLSSSVTVPSSTWPSETVTCNVAHPASSTKVDKKIVPRDCGCKPCICTVPEVSSVFIFPPKPKDVLTITLTPKVTCVVVDISKDDPEVQFSWFVDDVEVHTAQTQPREEQFNSTFRSVSELPIMHQDWLNGKEFKCRVNSAAFPAPIEKTISKTKGRPKAPQVYTIPPPKEQMAKDKVSLTCMITDFFPEDITVEWQWNGQPAENYKNTQPIMDTDGSYFVYSKLNVQKSNWEAGNTFTCSVLHEGLHNHHTEKSLSHSPGK
light: DIKMTQSPSSMYASLGERVTITCKASQDINSYLSWFQQKPGKSPKTLIYRANRLVDGVPSRFSGSGSGQDYSLTISSLEYEDMGIYFCLQYDDFPYTFGGGTKLEIKRADAAPTVSIFPPSSEQLTSGGASVVCFLNNFYPKDINVKWKIDGSERQNGVLNSWTDQDSKDSTYSMSSTLTLTKDEYERHNSYTCEATHKTSTSPIVKSFNRNEC
Turning to B2, the Neutralization entry in assay [3] is listed as “No”.

B3: M_5: murine-derived IL-19 antibody; LC SEQ ID NO: 312, HC SEQ ID NO: 313 (antibody)
heavy: EVQLQQSGPVLVKPGASVKMSCKASGYPFNDYFLGWVKQSHGKSLEWIGSINPDNDYTMSNQKFKGKATLTVDKSSSTAYMELNSLTSEDSAVYYCARYDYDWAWFAHWGQGTLVTVSAAKTTPPSVYPLAPGSAAQTNSMVTLGCLVKGYFPEPVTVTWNSGSLSSGVHTFPAVLQSDLYTLSSSVTVPSSTWPSETVTCNVAHPASSTKVDKKIVPRDCGCKPCICTVPEVSSVFIFPPKPKDVLTITLTPKVTCVVVDISKDDPEVQFSWFVDDVEVHTAQTQPREEQFNSTFRSVSELPIMHQDWLNGKEFKCRVNSAAFPAPIEKTISKTKGRPKAPQVYTIPPPKEQMAKDKVSLTCMITDFFPEDITVEWQWNGQPAENYKNTQPIMDTDGSYFVYSKLNVQKSNWEAGNTFTCSVLHEGLHNHHTEKSLSHSPGK
light: DIVMTQSPSSLAMSVGQKVTMSCKSSQSLLSSYNQKNYLAWYQRKPGQSPKLLVYFASQRATGVPDRFIGSGSGSDFTLTISSVQAEDLADYFCQQHTRLPITFGAGTKLELKRADAAPTVSIFPPSSEQLTSGGASVVCFLNNFYPKDINVKWKIDGSERQNGVLNSWTDQDSKDSTYSMSSTLTLTKDEYERHNSYTCEATHKTSTSPIVKSFNRNEC
On to B3, for which the Neutralization result in assay [3] is “Yes (minimal (<0.025 nm) increase in the wavelength)”. Also, the “% inhibition +/− SEM (maximum signal inhibition percentage)” value in assay [4] is listed as 105.03 +/− 1.38%.

B4: M_2: murine-derived IL-19 antibody; LC SEQ ID NO: 10, HC SEQ ID NO: 14 (antibody)
heavy: LVQLQQSDAELVKPGASLKISCKVSGYTFTDHALHWMKQRPEQGLEWIGYIYPRDGSTKYNEKFKGKATLTADRSSSTAYMELNSLTSEDSAVYFCARGWDFAMDYWGQGTSVTVSSAKTTPPSVYPLAPGSAAQTNSMVTLGCLVKGYFPEPVTVTWNSGSLSSGVHTFPAVLQSDLYTLSSSVTVPSSTWPSETVTCNVAHPASSTKVDKKIVPRDCGCKPCICTVPEVSSVFIFPPKPKDVLTITLTPKVTCVVVDISKDDPEVQFSWFVDDVEVHTAQTQPREEQFNSTFRSVSELPIMHQDWLNGKEFKCRVNSAAFPAPIEKTISKTKGRPKAPQVYTIPPPKEQMAKDKVSLTCMITDFFPEDITVEWQWNGQPAENYKNTQPIMDTDGSYFVYSKLNVQKSNWEAGNTFTCSVLHEGLHNHHTEKSLSHSPGK
light: DIVLTQSPESLAVSLGQRATISCRASESVDNYGISFIHWYQQKPGQPPKLLIYRASNLKSGIPARFSGRGSRTDFTLTINPVETDDVATYYCQQINKDPLTFGAGTKLELKRADAAPTVSIFPPSSEQLTSGGASVVCFLNNFYPKDINVKWKIDGSERQNGVLNSWTDQDSKDSTYSMSSTLTLTKDEYERHNSYTCEATHKTSTSPIVKSFNRNEC
As to B4, the Neutralization result in assay [3] was “No”.

B5: R_4: rabbit-derived IL-19 antibody; LCVR SEQ ID NO: 58, HCVR SEQ ID NO: 62 (antibody, V domains shown)
VH: QCQSVEESGGRLVTPGTPLTLTCTVSGIDLSIYAMGWVRQAPGKGLEYIGIIDTTGTAYYARWAKGRFTISKTSATVALKITSPTTEDTATYFCARDSGSLYYGSYALWGPGTLVTVSS
VL: ADVVMTQTPSSVSEPVGGTVTIKCQASQSIYSYLSWYQQKPGQPPKLLIYEASKLASGVPSRFKGSGSGTQFTLTISGVECADAATYYCQQGYSSSNVDNTFGGGTEVVVT
With B5, the kon in assay [1] stood at 152000 M⁻¹ s⁻¹. Also, the “Binning Group” value in assay [2] is 4.

B6: R_1: rabbit-derived IL-19 antibody; LCVR SEQ ID NO: 34, HCVR SEQ ID NO: 38 (antibody, V domains shown)
VH: QQLEESGGGLVQPEGSLTLTCTASGFSFSSSYWICWVRQAPGKGLEWLACIDTGVSGDTYYANWAEGRFTISKTSSTTVTLQMTSLTAADTATYFCARDIFGSAIDNSLWGPGTLVTVSS
VL: AIDMTQTPASVSEPVGGTVTIKCQASQSISSYLAWYQQKPGQPPKLLIYSASTLASGVPSRFRGSGSGREFTLTISDLECADAATYYCQCHYHGSSYWDNSFGGGTEVVVK
B6: the kon in assay [1] is 33300 M⁻¹ s⁻¹. In addition, in assay [2], the “Binning Group” value turned out to be 3.

B7: R_2: rabbit-derived IL-19 antibody; LCVR SEQ ID NO: 42, HCVR SEQ ID NO: 46 (antibody, V domains shown)
VH: QQLEESGGGLVQPEGSLTLTCTASGFSFSSSYWICWVRQAPGKGLEWLACIDTGVSGDTYYANWAKGRFTISKTSSTTVTLQMTSLTAADTATYFCARDIFGSAIDNSLWGPGTLVTVSS
VL: ADVVMTQTPASVEAAVGGTVTIKCQASESIGNALAWYQQKPGQPPKLLIYDASKLASGVPSRFKGSGSGTQFTLTISDLECADAATYYCQCHYHGSSYWDNSFGGGTEVVVK
Consider B7, for which, in assay [1], the kon turned out to be 428000 M⁻¹ s⁻¹. Also, the “Binning Group” value in assay [2] is given as 3.
